Like-named read-outs stand apart in the source and are kept apart here. Ends that are not written are not given here. * marks the point of attachment. Biotin = O=C1N[C@H]2[C@H](CS[C@H]2CCCCC(=O)*)N1
T1: peptide … (SEQ ID NO:77), N-terminally biotinylated (human)
T1 sequence (peptide, N-terminally biotinylated): EISQEVAADVFPSY

T2: peptide … (SEQ ID NO:74), N-terminally biotinylated (human)
T2 sequence (peptide, N-terminally biotinylated): EISQEVAGDVFPSY

T3: peptide … (SEQ ID NO:51), N-terminally biotinylated (human)
T3 sequence (peptide, N-terminally biotinylated): EISQEVRGDVFPSY

T4: peptide … (SEQ ID NO:75), N-terminally biotinylated (human)
T4 sequence (peptide, N-terminally biotinylated): EISQEVRADVFPSY

T5: human lactadherin (human, UniProt Q08431 24-387)
T5 sequence (looked up): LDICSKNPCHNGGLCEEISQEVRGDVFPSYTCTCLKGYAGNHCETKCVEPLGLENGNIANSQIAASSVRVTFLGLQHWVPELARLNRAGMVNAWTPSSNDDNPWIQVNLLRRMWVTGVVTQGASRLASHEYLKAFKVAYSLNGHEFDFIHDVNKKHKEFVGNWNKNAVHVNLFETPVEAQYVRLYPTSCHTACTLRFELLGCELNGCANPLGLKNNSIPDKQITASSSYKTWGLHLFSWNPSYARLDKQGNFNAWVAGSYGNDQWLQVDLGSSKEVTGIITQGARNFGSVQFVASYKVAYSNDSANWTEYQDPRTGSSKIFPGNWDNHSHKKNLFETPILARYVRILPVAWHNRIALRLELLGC

T6: peptide EISQEVRAAVFPSY (SEQ ID NO:78), N-terminally biotinylated (human)
T6 peptide: Biotin-EISQEVRAAVFPSY

T7: peptide GDVFPSYTCTCLKG (SEQ ID NO:84), N-terminally biotinylated (human, cysteine pairing not given here)
T7 construct: Human lactadherin 14-mer with part of the RGD domain at the N-terminus
T7 peptide: Biotin-GDVFPSYTCTCLKG

T8: peptide HNGGLCEEISQEVR (SEQ ID NO:82), N-terminally biotinylated (human)
T8 construct: Human lactadherin 14-mer with part of the RGD domain at the C-terminus
T8 peptide: Biotin-HNGGLCEEISQEVR

T9: peptide EISQEVAAAVFPSY (SEQ ID NO:80), N-terminally biotinylated (human)
T9 peptide: Biotin-EISQEVAAAVFPSY

T10: peptide EISQEVAGAVFPSY (SEQ ID NO:79), N-terminally biotinylated (human)
T10 peptide: Biotin-EISQEVAGAVFPSY

T11: peptide VFPSYTCTCLKGYA (SEQ ID NO:86), N-terminally biotinylated (human, cysteine pairing not given here)
T11 peptide: Biotin-VFPSYTCTCLKGYA

T12: peptide EISQEVAADVFPSY (SEQ ID NO:77), N-terminally biotinylated (human)
T12 peptide: Biotin-EISQEVAADVFPSY

T13: peptide CHNGGLCEEISQEV (SEQ ID NO:83), N-terminally biotinylated (human, cysteine pairing not given here)
T13 peptide: Biotin-CHNGGLCEEISQEV

T14: peptide NGGLCEEISQEVRG (SEQ ID NO:81), N-terminally biotinylated (human)
T14 construct: Human lactadherin 14-mer with part of the RGD domain at the C-terminus
T14 peptide: Biotin-NGGLCEEISQEVRG

T15: peptide EISQEVAGDVFPSY (SEQ ID NO:74), N-terminally biotinylated (human)
T15 peptide: Biotin-EISQEVAGDVFPSY

T16: peptide EISQEVRGAVFPSY (SEQ ID NO:76), N-terminally biotinylated (human)
T16 peptide: Biotin-EISQEVRGAVFPSY

T17: peptide EISQEVRADVFPSY (SEQ ID NO:75), N-terminally biotinylated (human)
T17 peptide: Biotin-EISQEVRADVFPSY

T18: peptide DVFPSYTCTCLKGY (SEQ ID NO:85), N-terminally biotinylated (human, cysteine pairing not given here)
T18 construct: Human lactadherin 14-mer with part of the RGD domain at the N-terminus
T18 peptide: Biotin-DVFPSYTCTCLKGY

B1: huMc3 antibody (antibody, V domains shown)
VH: EVQLVQSGAEVKKPGASVKVSCKASGYSFTGYTMHWVKQSPGMNLEWIGLINPYNGGTVYNQKFQDKATLTVDKSTSTAYMELSSLRSEDTAVYFCARRWRYTMDYWGQGTLVTVSS
VL: DIVMTQSPDSLAVSLGERATITCKASQDVSIGVAWYQQKPGQSPKLLIYSASSRYTGVPDRFSGSGSGTDFTLTISSLQAEDVAVYYCQQHYTSPFTFGSGTKVEIK
B2: anti-lactadherin antibody 346B6 (antibody, IgG1, V domains shown)
VH: EFQLQQSGPELVKPGASVRISCKASGYSFTDYNMNWVKQSDGKTLEWIGVINPDYGTTNNNQRFRGKATLTLDLSSSTAYMQLNSLTSEDSAVYYCARGGDYGAGYALDYWGQGTSVTVSS
VL: QIVLTQSPAIMSASPGEKVTMTCSASSSVSYMYWYQQKPGSSPRLLIYDTSNLASGVPVRFSGSGSGTSYSLTISRMEAEDAATYYCQQWSSYPPTFGAGTKLELKR
notes: VH identical to that of 311A7; also called hybridoma 346B6; LMBP 9490CB
B3: anti-lactadherin antibody 311A7 (antibody, IgG1, V domains shown)
VH: EFQLQQSGPELVKPGASVRISCKASGYSFTDYNMNWVKQSDGKTLEWIGVINPDYGTTNNNQRFRGKATLTLDLSSSTAYMQLNSLTSEDSAVYYCARGGDYGAGYALDYWGQGTSVTVSS
VL: QIVLTQSPAIMSASPGEKVTITCSASSSVSYMYWFQQKPGTSPKLWIYSTSNLASGVPARFSGSGSGTSYSLTISRMEAEDAATYYCQQRSSYPRTFGGGTKLEIKR
notes: also called murine 311A7; hybridoma 311A7

What was measured:
[1] = biological target: T1, peptide … (SEQ ID NO:77), N-terminally biotinylated (human); assay: ELISA, biotin-peptide on neutravidin plate, antibody 1 ug/ml
[2] = biological target: peptide … (SEQ ID NO:76), N-terminally biotinylated (human); assay: as above
[3] = biological target: peptide … (SEQ ID NO:83), N-terminally biotinylated (human); assay: as above
[4] = biological target: peptide … (SEQ ID NO:86), N-terminally biotinylated (human); assay: as above
[5] = biological target: peptide … (SEQ ID NO:78), N-terminally biotinylated (human); assay: as above
[6] = biological target: peptide … (SEQ ID NO:80), N-terminally biotinylated (human); assay: as above
[7] = biological target: T2, peptide … (SEQ ID NO:74), N-terminally biotinylated (human); assay: as above
[8] = biological target: T3, peptide … (SEQ ID NO:51), N-terminally biotinylated (human); assay: as above
[9] = biological target: peptide … (SEQ ID NO:82), N-terminally biotinylated (human); assay: as above
[10] = biological target: peptide … (SEQ ID NO:81), N-terminally biotinylated (human); assay: as above
[11] = biological target: T4, peptide … (SEQ ID NO:75), N-terminally biotinylated (human); assay: as above
[12] = biological target: peptide … (SEQ ID NO:79), N-terminally biotinylated (human); assay: as above
[13] = biological target: peptide … (SEQ ID NO:84), N-terminally biotinylated (human); assay: as above
[14] = biological target: peptide … (SEQ ID NO:85), N-terminally biotinylated (human); assay: as above
human lactadherin = biological target: T5, human lactadherin; assay: cell-based or functional assay
[15] = biological target: T6, peptide EISQEVRAAVFPSY (SEQ ID NO:78), …; assay: ELISA, biotin-peptide on neutravidin plate, antibody 1 ug/ml
[16] = biological target: T7, peptide GDVFPSYTCTCLKG (SEQ ID NO:84), …; assay: as above
[17] = biological target: T8, peptide HNGGLCEEISQEVR (SEQ ID NO:82), …; assay: as above
[18] = biological target: T9, peptide EISQEVAAAVFPSY (SEQ ID NO:80), …; assay: as above
[19] = biological target: T10, peptide EISQEVAGAVFPSY (SEQ ID NO:79), …; assay: as above
[20] = biological target: T11, peptide VFPSYTCTCLKGYA (SEQ ID NO:86), …; assay: as above
[21] = biological target: T12, peptide EISQEVAADVFPSY (SEQ ID NO:77), …; assay: as above
[22] = biological target: T13, peptide CHNGGLCEEISQEV (SEQ ID NO:83), …; assay: as above
[23] = biological target: T14, peptide NGGLCEEISQEVRG (SEQ ID NO:81), …; assay: as above
[24] = biological target: T15, peptide EISQEVAGDVFPSY (SEQ ID NO:74), …; assay: as above
[25] = biological target: T16, peptide EISQEVRGAVFPSY (SEQ ID NO:76), …; assay: as above
[26] = biological target: T17, peptide EISQEVRADVFPSY (SEQ ID NO:75), …; assay: as above
[27] = biological target: T18, peptide DVFPSYTCTCLKGY (SEQ ID NO:85), …; assay: as above
[28] = biological target: T3, peptide … (SEQ ID NO:51), N-terminally biotinylated (human); assay: as above; remark: listed apart in the source

Row | Molecule | IC50 (nM), inhibition of cell adhesion to human lactadherin (human lactadherin) [nM] | inhibition of SKOV-3 cell adhesion to coated human lactadherin, antibody at 5 ug/mL (human lactadherin) [%] | absorbance 450 nm minus 540 nm [15] [absorbance] | absorbance 450 nm minus 540 nm [16] [absorbance] | absorbance 450 nm minus 540 nm [17] [absorbance] | absorbance 450 nm minus 540 nm [18] [absorbance] | absorbance 450 nm minus 540 nm [19] [absorbance] | absorbance 450 nm minus 540 nm [20] [absorbance] | absorbance 450 nm minus 540 nm [21] [absorbance] | absorbance 450 nm minus 540 nm [22] [absorbance] | absorbance 450 nm minus 540 nm [23] [absorbance] | absorbance 450 nm minus 540 nm [24] [absorbance] | absorbance 450 nm minus 540 nm [25] [absorbance] | absorbance 450 nm minus 540 nm [26] [absorbance] | absorbance 450 nm minus 540 nm [27] [absorbance] | absorbance 450 nm minus 540 nm [28] [absorbance] | further results
1 | rabbit polyclonal antibody preparation raised against amino acids 56-190 of murine MFG-E8 (Santa Cruz sc-33546) | – | – | – | – | – | – | – | – | – | – | – | – | – | – | – | – | absorbance 450 nm minus 540 nm [1]: 0.24 absorbance; absorbance 450 nm minus 540 nm [2]: 0.24 absorbance; absorbance 450 nm minus 540 nm [3]: 0.24 absorbance; absorbance 450 nm minus 540 nm [4]: 0.34 absorbance; absorbance 450 nm minus 540 nm [5]: 0.28 absorbance; absorbance 450 nm minus 540 nm [6]: 0.31 absorbance; absorbance 450 nm minus 540 nm [7]: 0.24 absorbance; absorbance 450 nm minus 540 nm [8]: 0.28 absorbance; absorbance 450 nm minus 540 nm [9]: 0.24 absorbance; absorbance 450 nm minus 540 nm [10]: 0.27 absorbance; absorbance 450 nm minus 540 nm [11]: 0.22 absorbance; absorbance 450 nm minus 540 nm [12]: 0.28 absorbance; absorbance 450 nm minus 540 nm [13]: 0.29 absorbance; absorbance 450 nm minus 540 nm [14]: 0.41 absorbance
2 | B1 | 6.48 | > 70 | 0.06 | 0.08 | 0.08 | 0.04 | 0.04 | 0.07 | 0.05 | 0.09 | 0.09 | 0.04 | 0.06 | 0.03 | 0.09 | – | –
3 | B2 | – | 25 | 0.02 | 0.02 | 0.02 | 0.01 | 0.07 | 0.03 | 0.01 | 0.02 | 0.02 | 0.02 | 0.02 | 0.01 | 0.03 | 1 | –
4 | B3 | 7.36 | > 70 | 0.02 | 0.02 | 0.02 | 0.02 | 0.05 | 0.02 | 0.01 | 0.02 | 0.01 | 0.02 | 0.01 | 0.01 | 0.02 | 1.47 | decrease of SKOV-3 cell migration towards lactadherin, antibody at 5 ug/mL (human lactadherin): > 80%
